In the nanobody polyreactivity screen of Harvey et al. (2022):

Experiment: yeast display, Sf9 membrane polyspecificity reagent, FACS + sequencing; frameworks hold sequencing errors
Method in brief: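 Nanobodies from a synthetic yeast display library (Saccharomyces cerevisiae BJ5465), induced 36–48 hours with galactose, were stained 1 hour at 4 °C with 10% biotinylated, detergent-solubilized Sf9 membrane reagent, enriched on streptavidin microbeads, then FACS-sorted. Anti-HA (expression) and streptavidin (reagent binding) fluorescence set low and high (top ~1%) gates. Polyreactivity labels come from the gate of origin. Genes were colony-PCR amplified, MiSeq 2 × 250 sequenced and filtered by CDR length.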

Sequence	polyreactivity (PSR sort gate)
QVQLVESGGGLVQAGGSLRLSCAASGGTFNGNTMGWYRQAPGKERELVAVIDWSGGSTYYADSVKGRFTISRDNAKNTVYLQMNSLKPEDTAVYYYNADSDAQFREPKGLYYWGQGTQVTVSS	low polyreactivity
QVQLVESGGGLVQAGGSLRLSCAASGGTFNQYAMGWYRQAPGKEREFVASISRRGGSTYYADSVKGRFTISRDNAKNTVYLQMNSLKPEDTAVYYCAADAFFRLDYYYWGQGTQVTVSS	high polyreactivity
QVQLVESGGGLVQAGGSLRLSCAASGGTFNTYAMGWYRQAPGKERELVAAITSSGGSTFYADSVKGRFTISRDNAKNTVYLQMNSLKPEDTAVYYCAAKSYWTIVYRHPGYYYWGQGTQVTVSS	low polyreactivity
QVQLVESGGGLVQAGGSLRLSCAASGGTFPWYTMGWYRQAPGKERELFAAISWRGGRTYYADSVKGRFTISRDNAKNTVYLQMNSLKPEDTAVYYCAATPRYRVYYGSYYLRYDYWGQGTQVTVSS	high polyreactivity
QVQLVESGGGLVQAGGSLRLSCAASGGTFQAYAMGWYSQAPGKDREFDAAITAGGGSTSYADSVKGRFTISRDNAKNTVDLQLNRLKPEDSAAYYCAVDGGFPVTDYDYWGQGTQVTVST	low polyreactivity
QVQLVESGGGLVQAGGSLRLSCAASGGTFQYYTMGWYRQAPGKERELVAGISSGGSTYYPDSVKGRFTISRDNAMNTVYLQMNRLKPEVTAVYYCNAVSRRKTYGYRIIKYDYWGQGTQVTVSS	high polyreactivity
QVQLVESGGGLVQAGGSLRLSCAASGGTFRAYVMGWYRQAPGKERELVAAISRSGTRTYYADSVKGRFTISRDNAKNTVYSQLNSLKPEDTAVYYCAAAANSWLFDYWGQGTQVTVSS	high polyreactivity
QVQLVESGGGLVQAGGSLRLSCAASGGTFRGYAMGWYRQATGKERELVAAITYSGGRTYYADSVKGRFTISRDNAKNTVYLQMNSLKPEDTAVYYCNAQSSGRLSYRYDYWGQGTQVTVSS	high polyreactivity
QVQLVESGGGLVQAGGSLRLSCAASGGTFRKNTMGWYRQAPGKERELVAAITRRADRTYYADSVKGRFTISRDNAKNTVYLQMNSLKPEDTAVYYCNAPPPPTKVGGYDYWGQGTQVTVSS	high polyreactivity
QVQLVESGGGLVQAGGSLRLSCAASGGTFRNYAMGWYRQAPGKERELVAAITTGTITNYADSVKGRFTISRDNAKNTVYLQLNSLKPEDTAVYYCNAGAFYSDPYVYWGQGNQVTVSS	low polyreactivity
QVQLVESGGGLVQAGGSLRLSCAASGGTFRRNAMGWYRQAPGKERELVAAISFNGDRTYYADSVKGRFTISRDNAKNTVYLQMNSLKPEDTAVYYCNKASWWWGGYTYPHEYWGQGTQVTVSS	low polyreactivity
QVQLVESGGGLVQAGGSLRLSCAASGGTFRTYAMGWYRQAAGKERELVAAITGSGGRTYYADSVKGRFTISRDNAKNTVYLQMNSLKPEDTAVYDCNTGPVYQGYHWGQGTQVTVSS	high polyreactivity
QVQLVESGGGLVQAGGSLRLSCAASGGTFRVYAMGWYRKAPGKERELVAAITGRGGSTYYADSVKGRFTISRDNAKNTVYLQMNSLKPEDTAVYDCAKDPVTTYYKYDYWGQGTQVTVSS	low polyreactivity
QVQLVESGGGLVQAGGSLRLSCAASGGTFRWNARGWYRQAPGKERELVAAITKSGGSTYYADSVKGRFTISRDIAKNTVYLQMNSLKPEDTAVYYCATDYLRRRDYWGQGTQVTVSS	high polyreactivity
QVQLVESGGGLVQAGGSLRLSCAASGGTFSAYAMGWYRQAPGKERELVAAISYRGGRTYYADSVKGRFTISRDNAKNTVYLQMNSLKPEDTAVYYCNARRGSATHSVTARRGYWGQGTQVTVSS	high polyreactivity
QVQLVESGGGLVQAGGSLRLSCAASGGTFSCYAMGWYRQAPGKERELVAAITRRGGRTYYADSVKGRFTISRDNAKNTVYLQMNSLKPEDTAVYYCNTDYKFDYVGFSTWVVRYDYWGQGTQVTVSS	low polyreactivity
QVQLVESGGGLVQAGGSLRLSCAASGGTFSLNAMGWSRQAPGKERELVAAITYSTGRTHYADSVKGRFTISRDNAKNTVYLQMNSLKPEDTAVYYCAARVYGTKMDYWGQGTQVTVSS	high polyreactivity
